This is an account of results in patent publication US20210284724A1.

Holding throughout (experiment): alanine scan, flow cytometry on transfected cells
On the technique in general: A flow cytometer gives signals particle by particle.

The target of test [1] is human CXCL13 P22A (human) (UniProt O43927).
Test [2] addresses human CXCL13 F25A (human) (UniProt O43927).
Test [3] deals with human CXCL13 F20A (human) (UniProt O43927).
The target of test [4] is human CXCL13 R24A (human) (UniProt O43927).
Sequence of human CXCL13 R24A (human) (O43927 23-109 R46A): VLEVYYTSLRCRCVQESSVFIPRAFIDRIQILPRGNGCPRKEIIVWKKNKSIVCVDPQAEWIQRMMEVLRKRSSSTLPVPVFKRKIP

Sequence of human CXCL13 F25A (human) (O43927 23-109 F47A): as the sequence (O43927 23-109 R46A) above, with A24R, F25A counted along it
Sequence of human CXCL13 F20A (human) (O43927 23-109 F42A): as the sequence (O43927 23-109 R46A) above, with F20A, A24R counted along it
Sequence of human CXCL13 P22A (human) (O43927 23-109 P44A): as the sequence (O43927 23-109 R46A) above, with P22A, A24R counted along it

As for Control Fab, the Binding reactivity (% WT) in test [1] was 97.4 % WT; in test [2], 127 % WT; in test [3], 110 % WT; in test [4], 88 % WT.
